Target: SMARCB1 (aa 169–385) (human, UniProt Q12824 169-385)
Assay: ITC; second site (Kd2, two-site model)

Sequence of SMARCB1 (aa 169–385) (Q12824 169-385): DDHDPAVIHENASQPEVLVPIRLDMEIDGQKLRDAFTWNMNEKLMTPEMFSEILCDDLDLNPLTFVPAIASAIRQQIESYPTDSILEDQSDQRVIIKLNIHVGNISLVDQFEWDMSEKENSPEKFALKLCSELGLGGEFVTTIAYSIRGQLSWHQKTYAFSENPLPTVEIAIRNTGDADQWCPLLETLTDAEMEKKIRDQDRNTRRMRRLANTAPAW

Kd: 1.96 nM
B1: SMARCC2 (aa 325–518) (domain or fragment)
chain: TKSKRGHREEEQEDLTKDMDEPSPVPNVEEVTLPKTVNTKKDSESAPVKGGTMTDLDEQEDESMETTGKDEDENSTGNKGEQTKNPDLHEDNVTEQTHHIIIPSYAAWFDYNSVHAIERRALPEFFNGKNKSKTPEIYLAYRNFMIDTYRLNPQEYLTSTACRRNLAGDVCAIMRVHAFLEQWGLINYQVDAES
